Source: the supplement of paper PMC9112550, “Optimization of the antimicrobial peptide Bac7 by deep mutational scanning” (BMC Biology, 2022)

Test system: Escherichia coli TOP10
Assay: shrunken log2 fold change of peptide-encoding DNA abundance (4.5 h post-induction vs induction); higher = less antimicrobial activity (less host growth inhibition)
Settings: time post-induction: 4.5 h; library: site-saturation at positions 5, 18, 19, 20
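Note: peptides expressed intracellularly from a pBAD plasmid library in pooled LB shake-flask culture, induced with 0.3% L-arabinose, DNA abundance read by NGS, three biological replicates, DESeq2 with apeglm shrinkage.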

RRIRCRPPRLPRPRPRPLKRPRP
shrunken log2 fold change: -0.052

RRIRFRPPRLPRPRPRPVYCPRP
shrunken log2 fold change: -0.408

RRIRSRPPRLPRPRPRPRYTPRP
shrunken log2 fold change: -0.145

RRIRVRPPRLPRPRPRPIRSPRP
shrunken log2 fold change: -0.125

RRIRSRPPRLPRPRPRPACQPRP
shrunken log2 fold change: 0.0147

RRIRPRPPRLPRPRPRPRPDPRP
shrunken log2 fold change: 0.45

RRIRHRPPRLPRPRPRPVNNPRP
shrunken log2 fold change: -1.17

RRIRYRPPRLPRPRPRPIKHPRP
shrunken log2 fold change: -0.693

RRIRQRPPRLPRPRPRPIDQPRP
shrunken log2 fold change: -0.0135

RRIRKRPPRLPRPRPRPHNYPRP
shrunken log2 fold change: -0.0761

RRIRMRPPRLPRPRPRPTVMPRP
shrunken log2 fold change: 0.563

RRIRRRPPRLPRPRPRPDECPRP
shrunken log2 fold change: 0.746

RRIRYRPPRLPRPRPRPVFDPRP
shrunken log2 fold change: -1.18

RRIRSRPPRLPRPRPRPGYWPRP
shrunken log2 fold change: -0.0968

RRIRMRPPRLPRPRPRPCQLPRP
shrunken log2 fold change: -0.00804

RRIRIRPPRLPRPRPRPFFHPRP
shrunken log2 fold change: -0.575

RRIRVRPPRLPRPRPRPTPHPRP
shrunken log2 fold change: 0.313

RRIRMRPPRLPRPRPRPEKNPRP
shrunken log2 fold change: 2.16

RRIRFRPPRLPRPRPRPVLIPRP
shrunken log2 fold change: -0.17

RRIRPRPPRLPRPRPRPPAAPRP
shrunken log2 fold change: 0.54

RRIRRRPPRLPRPRPRPHNCPRP
shrunken log2 fold change: 0.163

RRIRERPPRLPRPRPRPDMDPRP
shrunken log2 fold change: 0.0527

RRIRARPPRLPRPRPRPTRLPRP
shrunken log2 fold change: 0.545

RRIRKRPPRLPRPRPRPHKWPRP
shrunken log2 fold change: -0.0776

RRIRHRPPRLPRPRPRPSFLPRP
shrunken log2 fold change: -0.729

RRIRVRPPRLPRPRPRPFLTPRP
shrunken log2 fold change: -0.0925

RRIRIRPPRLPRPRPRPLTGPRP
shrunken log2 fold change: -0.0674

RRIRLRPPRLPRPRPRPQCKPRP
shrunken log2 fold change: -0.425

RRIRCRPPRLPRPRPRPVAIPRP
shrunken log2 fold change: -0.156

RRIRWRPPRLPRPRPRPVPWPRP
shrunken log2 fold change: 0.374

RRIRRRPPRLPRPRPRPDRKPRP
shrunken log2 fold change: -0.145

RRIRYRPPRLPRPRPRPVHKPRP
shrunken log2 fold change: -0.564

RRIRHRPPRLPRPRPRPDMKPRP
shrunken log2 fold change: -0.0644

RRIRTRPPRLPRPRPRPTVWPRP
shrunken log2 fold change: -0.049

RRIRQRPPRLPRPRPRPRVAPRP
shrunken log2 fold change: 0.337

RRIRARPPRLPRPRPRPFKGPRP
shrunken log2 fold change: -0.104

RRIRQRPPRLPRPRPRPFWWPRP
shrunken log2 fold change: 0.0308

RRIRFRPPRLPRPRPRPGQHPRP
shrunken log2 fold change: 0.176

RRIRQRPPRLPRPRPRPFVKPRP
shrunken log2 fold change: -0.234

RRIRPRPPRLPRPRPRPWFHPRP
shrunken log2 fold change: 0.0116

RRIRQRPPRLPRPRPRPIYIPRP
shrunken log2 fold change: -0.46

RRIRERPPRLPRPRPRPMQYPRP
shrunken log2 fold change: -0.271

RRIRDRPPRLPRPRPRPPQPPRP
shrunken log2 fold change: 0.387

RRIRVRPPRLPRPRPRPWLPPRP
shrunken log2 fold change: -0.59

RRIRRRPPRLPRPRPRPGLQPRP
shrunken log2 fold change: -0.0644

RRIRLRPPRLPRPRPRPQRRPRP
shrunken log2 fold change: 0.0742

RRIRTRPPRLPRPRPRPHARPRP
shrunken log2 fold change: 0.158

RRIRPRPPRLPRPRPRPRSYPRP
shrunken log2 fold change: 0.199

RRIRDRPPRLPRPRPRPTKEPRP
shrunken log2 fold change: -0.0917

RRIRLRPPRLPRPRPRPTGAPRP
shrunken log2 fold change: -0.211

RRIRMRPPRLPRPRPRPCPCPRP
shrunken log2 fold change: 0.495

RRIRARPPRLPRPRPRPPLTPRP
shrunken log2 fold change: 0.536

RRIRARPPRLPRPRPRPNSYPRP
shrunken log2 fold change: -0.00611

RRIRQRPPRLPRPRPRPRLCPRP
shrunken log2 fold change: 0.423

RRIRQRPPRLPRPRPRPCLNPRP
shrunken log2 fold change: -0.632

RRIRWRPPRLPRPRPRPWRDPRP
shrunken log2 fold change: 0.433

RRIRRRPPRLPRPRPRPEFIPRP
shrunken log2 fold change: -0.0197

RRIRIRPPRLPRPRPRPMYYPRP
shrunken log2 fold change: -0.32

RRIRHRPPRLPRPRPRPSVPPRP
shrunken log2 fold change: -0.0518

RRIRSRPPRLPRPRPRPGIYPRP
shrunken log2 fold change: -0.135

RRIRFRPPRLPRPRPRPLKVPRP
shrunken log2 fold change: -0.112

RRIRARPPRLPRPRPRPHHRPRP
shrunken log2 fold change: 0.00443

RRIRYRPPRLPRPRPRPGRSPRP
shrunken log2 fold change: -0.184

RRIRCRPPRLPRPRPRPVDEPRP
shrunken log2 fold change: 2.09

RRIRNRPPRLPRPRPRPAKKPRP
shrunken log2 fold change: -0.0505

RRIRHRPPRLPRPRPRPVQHPRP
shrunken log2 fold change: -0.0639

RRIRVRPPRLPRPRPRPMPIPRP
shrunken log2 fold change: 0.055

RRIRIRPPRLPRPRPRPENKPRP
shrunken log2 fold change: -0.663

RRIRQRPPRLPRPRPRPNVYPRP
shrunken log2 fold change: -0.222

RRIRGRPPRLPRPRPRPMVCPRP
shrunken log2 fold change: 0.55

RRIRIRPPRLPRPRPRPYLNPRP
shrunken log2 fold change: -0.239

RRIRRRPPRLPRPRPRPYKPPRP
shrunken log2 fold change: 0.0267

RRIRMRPPRLPRPRPRPHFWPRP
shrunken log2 fold change: 0.774

RRIRIRPPRLPRPRPRPPALPRP
shrunken log2 fold change: 0.0147

RRIRCRPPRLPRPRPRPLKSPRP
shrunken log2 fold change: -0.154

RRIRIRPPRLPRPRPRPVCMPRP
shrunken log2 fold change: -0.564

RRIRMRPPRLPRPRPRPDDAPRP
shrunken log2 fold change: 0.225

RRIRRRPPRLPRPRPRPDYHPRP
shrunken log2 fold change: -0.0959

RRIRHRPPRLPRPRPRPHVCPRP
shrunken log2 fold change: 0.00854

RRIRERPPRLPRPRPRPRMGPRP
shrunken log2 fold change: -0.173

RRIRSRPPRLPRPRPRPRYNPRP
shrunken log2 fold change: -0.479

RRIRFRPPRLPRPRPRPDEMPRP
shrunken log2 fold change: -0.0134

RRIRQRPPRLPRPRPRPTCCPRP
shrunken log2 fold change: -0.00785

RRIRLRPPRLPRPRPRPNCQPRP
shrunken log2 fold change: 0.0269

RRIRCRPPRLPRPRPRPRDYPRP
shrunken log2 fold change: 0.00558

RRIRGRPPRLPRPRPRPFIRPRP
shrunken log2 fold change: -0.257

RRIRHRPPRLPRPRPRPLITPRP
shrunken log2 fold change: -0.324

RRIRARPPRLPRPRPRPDRRPRP
shrunken log2 fold change: 0.086

RRIRMRPPRLPRPRPRPQVGPRP
shrunken log2 fold change: 0.12

RRIRVRPPRLPRPRPRPSWYPRP
shrunken log2 fold change: -0.698

RRIRCRPPRLPRPRPRPKVCPRP
shrunken log2 fold change: 0.0885

RRIRWRPPRLPRPRPRPHNHPRP
shrunken log2 fold change: -0.707

RRIRWRPPRLPRPRPRPPQRPRP
shrunken log2 fold change: 0.548

RRIRMRPPRLPRPRPRPHMFPRP
shrunken log2 fold change: -0.222

RRIRKRPPRLPRPRPRPVYAPRP
shrunken log2 fold change: -0.0576

RRIRMRPPRLPRPRPRPAMAPRP
shrunken log2 fold change: 0.778

RRIRERPPRLPRPRPRPWCGPRP
shrunken log2 fold change: -0.245

RRIRNRPPRLPRPRPRPMMGPRP
shrunken log2 fold change: 0.0355

RRIRFRPPRLPRPRPRPTCIPRP
shrunken log2 fold change: -0.13

RRIRGRPPRLPRPRPRPQHGPRP
shrunken log2 fold change: 0.137

RRIRARPPRLPRPRPRPLTNPRP
shrunken log2 fold change: 0.303

RRIRNRPPRLPRPRPRPANFPRP
shrunken log2 fold change: -0.193

RRIRIRPPRLPRPRPRPPQDPRP
shrunken log2 fold change: 0.0725

RRIRNRPPRLPRPRPRPVLAPRP
shrunken log2 fold change: 0.093

RRIRFRPPRLPRPRPRPCPRPRP
shrunken log2 fold change: 0.0155

RRIRMRPPRLPRPRPRPVRIPRP
shrunken log2 fold change: 0.238

RRIRFRPPRLPRPRPRPMNNPRP
shrunken log2 fold change: -0.501

RRIRWRPPRLPRPRPRPTQAPRP
shrunken log2 fold change: 1.45

RRIRCRPPRLPRPRPRPNNCPRP
shrunken log2 fold change: -0.636

RRIRVRPPRLPRPRPRPCVRPRP
shrunken log2 fold change: 0.0421

RRIRVRPPRLPRPRPRPQNWPRP
shrunken log2 fold change: 0.0353

RRIRNRPPRLPRPRPRPRMTPRP
shrunken log2 fold change: 0.259

RRIRLRPPRLPRPRPRPQRDPRP
shrunken log2 fold change: 0.231

RRIRGRPPRLPRPRPRPCVSPRP
shrunken log2 fold change: 0.265

RRIRHRPPRLPRPRPRPSTVPRP
shrunken log2 fold change: 0.00256

RRIRRRPPRLPRPRPRPDDEPRP
shrunken log2 fold change: 0.0458

RRIRTRPPRLPRPRPRPGAPPRP
shrunken log2 fold change: 0.479

RRIRDRPPRLPRPRPRPAKFPRP
shrunken log2 fold change: 0.0399

RRIRTRPPRLPRPRPRPLWEPRP
shrunken log2 fold change: -0.0281

RRIRRRPPRLPRPRPRPLGEPRP
shrunken log2 fold change: 0.144

RRIRKRPPRLPRPRPRPNTSPRP
shrunken log2 fold change: 0.0472

RRIRYRPPRLPRPRPRPANYPRP
shrunken log2 fold change: -0.0328

RRIRARPPRLPRPRPRPFYSPRP
shrunken log2 fold change: -0.0849

RRIRTRPPRLPRPRPRPETMPRP
shrunken log2 fold change: 0.338

RRIRWRPPRLPRPRPRPFSHPRP
shrunken log2 fold change: -0.241

RRIRFRPPRLPRPRPRPSLTPRP
shrunken log2 fold change: -0.413

RRIRVRPPRLPRPRPRPFMPPRP
shrunken log2 fold change: -0.355

RRIRPRPPRLPRPRPRPGCHPRP
shrunken log2 fold change: 0.332

RRIRNRPPRLPRPRPRPLHEPRP
shrunken log2 fold change: 0.0748

RRIRVRPPRLPRPRPRPQLGPRP
shrunken log2 fold change: -0.0234

RRIRARPPRLPRPRPRPHSAPRP
shrunken log2 fold change: -0.0202

RRIRARPPRLPRPRPRPYIHPRP
shrunken log2 fold change: -0.681

RRIRCRPPRLPRPRPRPVMGPRP
shrunken log2 fold change: 0.111

RRIRMRPPRLPRPRPRPLTNPRP
shrunken log2 fold change: 0.0401

RRIRKRPPRLPRPRPRPQHQPRP
shrunken log2 fold change: 0.122

RRIRERPPRLPRPRPRPTVFPRP
shrunken log2 fold change: 0.0505

RRIRWRPPRLPRPRPRPFQLPRP
shrunken log2 fold change: -0.316

RRIRRRPPRLPRPRPRPQITPRP
shrunken log2 fold change: 0.0752

RRIRMRPPRLPRPRPRPACEPRP
shrunken log2 fold change: 0.903

RRIRMRPPRLPRPRPRPLWAPRP
shrunken log2 fold change: 0.509

RRIRQRPPRLPRPRPRPETAPRP
shrunken log2 fold change: 0.159

RRIRKRPPRLPRPRPRPPDNPRP
shrunken log2 fold change: 0.0807

RRIRFRPPRLPRPRPRPSHHPRP
shrunken log2 fold change: -0.534

RRIRRRPPRLPRPRPRPHDYPRP
shrunken log2 fold change: -0.0628

RRIRCRPPRLPRPRPRPANRPRP
shrunken log2 fold change: 0.127

RRIRPRPPRLPRPRPRPLLEPRP
shrunken log2 fold change: 0.059

RRIRDRPPRLPRPRPRPLCTPRP
shrunken log2 fold change: 0.704

RRIRQRPPRLPRPRPRPRISPRP
shrunken log2 fold change: -0.176

RRIRFRPPRLPRPRPRPAYVPRP
shrunken log2 fold change: 0.678

RRIRWRPPRLPRPRPRPQSAPRP
shrunken log2 fold change: 0.372
